Results reported in article PMC12817079.
Changes are numbered by the printed parent chain.

What was measured:
SOG1NAC (WT NAC domain) [1] = molecular target: T1, SOG1NAC (WT NAC domain) (Arabidopsis thaliana, UniProt Q6NQK2 58-211); test: EMSA
T1 sequence: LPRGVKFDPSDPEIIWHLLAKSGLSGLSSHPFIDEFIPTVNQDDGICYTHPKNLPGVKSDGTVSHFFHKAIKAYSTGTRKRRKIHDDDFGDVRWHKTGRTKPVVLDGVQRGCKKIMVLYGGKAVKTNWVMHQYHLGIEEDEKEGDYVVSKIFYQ

SOG1NAC (WT NAC domain) [2] = molecular target: T1, SOG1NAC (WT NAC domain); test: EMSA; remark: listed apart in the source
SOG1NAC (WT NAC domain) [3] = molecular target: T1, SOG1NAC (WT NAC domain); test: ITC
SOG1NAC (WT NAC domain) [4] = molecular target: T1, SOG1NAC (WT NAC domain); test: EMSA; remark: listed apart in the source
SOG1NAC (WT NAC domain) [5] = molecular target: T1, SOG1NAC (WT NAC domain); test: EMSA; remark: listed apart in the source
SOG1NAC (WT NAC domain) [6] = molecular target: T1, SOG1NAC (WT NAC domain); test: EMSA; remark: listed apart in the source
SOG1NAC (WT NAC domain) [7] = molecular target: T1, SOG1NAC (WT NAC domain); test: ITC; remark: listed apart in the source
SOG1NAC-RKRR = molecular target: T2, SOG1NAC-RKRR (Arabidopsis thaliana, UniProt Q6NQK2 58-211, R136A;K137A;R138A;R139A); test: EMSA
T2 sequence: T1 sequence with R79A, K80A, R81A, R82A

SOG1NAC-DNAstrand = molecular target: T3, SOG1NAC-DNAstrand (Arabidopsis thaliana, UniProt Q6NQK2 58-211, R150S;H152S;T154A;R156S;T157S); test: EMSA
T3 sequence: T1 sequence with R93S, H95S, T97A, R99S, T100S

SOG1NAC (WT NAC domain) [8] = molecular target: T1, SOG1NAC (WT NAC domain); test: EMSA; remark: listed apart in the source

B1: Designed oligo 2 (one pBRCA1 site) (dsDNA)
DNA 1: TCTGTAAAGCTTTCAAGGGAAGCCTCTTTGACGTAACAGAAACCCCGGAGTAAGCTCCCGTGGGGTCGGCGATGGTGGTAACTAATTATGTTCCT
DNA 2: AGGAACATAATTAGTTACCACCATCGCCGACCCCACGGGAGCTTACTCCGGGGTTTCTGTTACGTCAAAGAGGCTTCCCTTGAAAGCTTTACAGA
B1: binds (SOG1NAC (WT NAC domain) [1]).

B2: pSMR5 site 1 (RC) (dsDNA)
DNA 1: TGACCGTAGCTTGTTCTGGAAGTTGCTAGGT
DNA 2: ACCTAGCAACTTCCAGAACAAGCTACGGTCA
B2: binds (SOG1NAC (WT NAC domain) [2]).

B3: non-target 31 bp (random) (dsDNA)
DNA 1: GTCGGCGATGGTGGTAACTAATTATGTTCCT
DNA 2: AGGAACATAATTAGTTACCACCATCGCCGAC
B3: no binding (SOG1NAC (WT NAC domain) [3]).

B4: pXRI1 31 bp (dsDNA)
DNA 1: ATAAAAAGCTTCTCTTGCAATTCTCTCTTCC
DNA 2: GGAAGAGAGAATTGCAAGAGAAGCTTTTTAT
B4: binds (SOG1NAC (WT NAC domain) [4]).

B5: pSMR5 site 3 (dsDNA)
DNA 1: ATTAAGAACCTTATTAGGAAAGTGCGAGAGA
DNA 2: TCTCTCGCACTTTCCTAATAAGGTTCTTAAT
B5: no binding (SOG1NAC (WT NAC domain) [5]).

B6: Designed oligo 1 (two pBRCA1 sites) (dsDNA)
DNA 1: TCTGTAAAGCTTTCAAGGGAAGCCTCTTTGACGTAACAGAAACCCCGGAGTAAGCTCCCGTGGGTCTGTAAAGCTTTCAAGGGAAGCCTCTTTGA
DNA 2: TCAAAGAGGCTTCCCTTGAAAGCTTTACAGACCCACGGGAGCTTACTCCGGGGTTTCTGTTACGTCAAAGAGGCTTCCCTTGAAAGCTTTACAGA
B6: binds (SOG1NAC (WT NAC domain) [6]).

B7: pBRCA1 31 bp (dsDNA)
DNA 1: TCAAAGAGGCTTCCCTTGAAAGCTTTACAGA
DNA 2: TCTGTAAAGCTTTCAAGGGAAGCCTCTTTGA
B7 was tested, and the Kd (SOG1NAC (WT NAC domain) [7]) was 139 nM, the binding result (SOG1NAC-RKRR) was “no binding” and the binding result (SOG1NAC-DNAstrand) was “no binding”.

B8: pSMR5 site 2 (RC) (dsDNA)
DNA 1: TTAGATTGCTTCTTTATTACACTAGTTTTGG
DNA 2: CCAAAACTAGTGTAATAAAGAAGCAATCTAA
B8: binds (SOG1NAC (WT NAC domain) [2]).

B9: pSMR5 97 bp (dsDNA)
DNA 1: TACCTAGCAACTTCCAGAACAAGCTACGGTCACTTCCAAAACTAGTGTAATAAAGAAGCAATCTAATTAAGAACCTTATTAGGAAAGTGCGAGAGAG
DNA 2: CTCTCTCGCACTTTCCTAATAAGGTTCTTAATTAGATTGCTTCTTTATTACACTAGTTTTGGAAGTGACCGTAGCTTGTTCTGGAAGTTGCTAGGTA
B9: binds (SOG1NAC (WT NAC domain) [8]).

B10: pTKa1 31 bp (dsDNA)
DNA 1: TGACAAATCTTCTCCAGCAATTTTCTTCCTT
DNA 2: AAGGAAGAAAATTGCTGGAGAAGATTTGTCA
B10: binds (SOG1NAC (WT NAC domain) [4]).

B11: pBRCA1 49 bp (dsDNA)
DNA 1: GCGTGTCCTTCAAAGAGGCTTCCCTTGAAAGCTTTACAGACTAAATAAA
DNA 2: TTTATTTAGTCTGTAAAGCTTTCAAGGGAAGCCTCTTTGAAGGACACGC
B11: binds (SOG1NAC (WT NAC domain) [2]).
